# In paper PMC1540706, “Role of the AP2 β-Appendage Hub in Recruiting Partners for Clathrin-Coated Vesicle Assembly” (PLoS Biology, 2006):
# Where a chain is given by its changes, count along the chain named.
# T1: human β2-appendage (700–937) R879A used for ITC (human, UniProt P63010 700-937, R879A)
# T1 construct: AP2 β2-adaptin appendage domain, human, residues 700-937; also called R879A mutant of the β-appendage
# T1 sequence (looked up): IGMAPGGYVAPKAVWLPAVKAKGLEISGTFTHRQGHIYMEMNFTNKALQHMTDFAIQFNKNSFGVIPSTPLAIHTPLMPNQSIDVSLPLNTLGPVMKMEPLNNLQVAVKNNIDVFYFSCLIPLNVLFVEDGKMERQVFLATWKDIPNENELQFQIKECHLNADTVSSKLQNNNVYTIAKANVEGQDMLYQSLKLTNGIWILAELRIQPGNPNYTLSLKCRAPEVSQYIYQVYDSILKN
# B1: β-arrestin P-long peptide (peptide)
# peptide: DDDIVFEDFARQRLKGMKDD
# notes: peptide from the C-terminus of β-arrestin; also called β-arrestin peptide; arrestin peptide; source: synthetic peptide, bought: Institute of Biomolecular Sciences (University of Southampton)
# B2: 6× His human Eps15-MD (530–791) (domain or fragment, UniProt P42566 530-791, looked up)
# chain: STSSSETANLNEHVEGQSNLESEPIHQESPARSSPELLPSGVTDENEVTTAVTEKVCSELDNNRHSKEEDPFNVDSSSLTGPVADTNLDFFQSDPFVGSDPFKDDPFGKIDPFGGDPFKGSDPFASDCFFRQSTDPFATSSTDPFSAANNSSITSVETLKHNDPFAPGGTVVAASDSATDPFASVFGNESFGGGFADFSTLSKVNNEDPFRSATSSSVSNVVITKNVFEETSVKSEDEPPALPPKIGTPTRPCPLPPGKRSI
# notes: Eps15 motif domain, human, residues 530-791 (STSSSE…GKRSI); The His-tagged form is named for SPR; also called 6× His hEps15-MD; motif domain of Eps15; source: recombinant (pET28c), purified
# B3: human β2-appendage (700–937) used for ITC (domain or fragment, UniProt P63010 700-937, looked up)
# chain: T1 sequence (looked up) with A180R
# notes: AP2 β2-adaptin appendage domain, human, residues 700-937; also called wild-type β2-appendage; β-appendage
# B4: Eps15 P-short peptide (peptide)
# peptide: SFGDGFADFSTL
# notes: peptide from Eps15; also called Eps15 peptide; source: synthetic peptide, bought: Institute of Biomolecular Sciences (University of Southampton)
# What was measured:
# Assay in all cases: ITC; VP-ITC; 100 mM HEPES, 50 mM NaCl, 2 mM DTT pH 7.4 at 10 °C; peptides or proteins injected from the syringe into the cell
# Settings in all cases: both partners purified
# [1] = biological target: B3
# [2] = biological target: T1, human β2-appendage (700–937) R879A used …
# [3] = biological target: B2
binder,measurement,setting,value
B1,Kd,[1],~2 µM
same,fold stronger than with the wild-type appendage,[2],10 fold
B2,stoichiometry N,[1],2
B3,Kd,[3],~20 µM
B4,Kd,[1],46 µM
